Where a chain is given by its changes, count along the chain named. In names and notes the source's numbering stands.
B1: D10-E06 hFc-vcPAB-MMAE [G4S]3 (Fc fusion, DAR 4)
chain 1: QVQLVESGGGLVQPGGSLRLSCAASGSIFSVNTMGWYRQAPGKQRDLVAVATSGGTIHYADSVKGRFTISRDNAKNTVYLQMNSLKPEDTAVYYCNLVVPYGMIAGDHDYWGQGTKVTVSSGGGGSGGGGSGGGGSEPKSSDKTHTCPPCPAPELLGGPCVFLFPPKPKDTLMISRTPEVTCVVVDVSHEDPEVKFNWYVDGVEVHNAKTKPREEQYNSTYRVVSVLTVLHQDWLNGKEYKCKVSNKALPAPIEKTISKAKGQPREPQVYTLPPSRDELTKNQVSLYCLVKGFYPSDIAVEWESNGQPENNYKTTPPVLDSDGSFFLYSKLTVDKSRWQQGNVFSCSVMHEALHNHYTQKSLCLSPGK
chain 2: QVHLVESGGGLVQAGGSLRLSCAASRRSFSEYAMGWFRQAPGKEREFVAAIGWSGVIEYADSVKGRFTISRDNAKDTVYLQMNSLKPEDTAVYYCAAGLGIRVVSQTPAYWGQGTQVTVSSGGGGSGGGGSGGGGSEPKSSDKTHTCPPCPAPELLGGPCVFLFPPKPKDTLMISRTPEVTCVVVDVSHEDPEVKFNWYVDGVEVHNAKTKPREEQYNSTYRVVSVLTVLHQDWLNGKEYKCKVSNKALPAPIEKTISKAKGQPREPQVYTLPPSRDELTKNQVSLTCLVKGFYPSDIAVEWESNGQPENNYKTTPPVLDSDGSFFLTSKLTVDKSRWQQGNVFSCSVMHEALHNHYTQKSLCLSPGK
modifications: MC-vc-PAB-MMAE on Cys 239 and Cys 442 (EU numbering)
notes: Biparatopic drug conjugate, DAR 4; also called #634
B2: D10-E10 hFc-vcPAB-MMAE [G4S]3 (Fc fusion, DAR 4)
chain 1: B1 chain 1
chain 2: QVQLVESGGGLVQAGGSLRLSCAVSGRALSDYNIGWFRQAPGKEREFVARKTWDGSSTRYDDSVKGRFTVSIEDAKNTAYLQMSSLKTEDTAVYYCAAGRYSRARGWEYDYWGQGTQVTVSSGGGGSGGGGSGGGGSEPKSSDKTHTCPPCPAPELLGGPCVFLFPPKPKDTLMISRTPEVTCVVVDVSHEDPEVKFNWYVDGVEVHNAKTKPREEQYNSTYRVVSVLTVLHQDWLNGKEYKCKVSNKALPAPIEKTISKAKGQPREPQVYTLPPSRDELTKNQVSLTCLVKGFYPSDIAVEWESNGQPENNYKTTPPVLDSDGSFFLTSKLTVDKSRWQQGNVFSCSVMHEALHNHYTQKSLCLSPGK
modifications: MC-vc-PAB-MMAE on Cys 239 and Cys 442 (EU numbering)
notes: Biparatopic drug conjugate, DAR 4
B3: D10-F05 hFc-vcPAB-MMAE [G4S]3 (Fc fusion, DAR 4)
chain 1: B1 chain 1
chain 2: B2 chain 2 with V24A, L29F, S30G, K51R, E73D, D74N, S84N, A104V
modifications: MC-vc-PAB-MMAE on Cys 239 and Cys 442 (EU numbering)
notes: Biparatopic drug conjugate, DAR 4; also called #637
B4: D10-E06-hFc-vcPAB-MMAE [G4S]1 (Fc fusion, DAR 4)
chain 1: QVQLVESGGGLVQPGGSLRLSCAASGSIFSVNTMGWYRQAPGKQRDLVAVATSGGTIHYADSVKGRFTISRDNAKNTVYLQMNSLKPEDTAVYYCNLVVPYGMIAGDHDYWGQGTKVTVSSGGGGSEPKSSDKTHTCPPCPAPELLGGPCVFLFPPKPKDTLMISRTPEVTCVVVDVSHEDPEVKFNWYVDGVEVHNAKTKPREEQYNSTYRVVSVLTVLHQDWLNGKEYKCKVSNKALPAPIEKTISKAKGQPREPQVYTLPPSRDELTKNQVSLYCLVKGFYPSDIAVEWESNGQPENNYKTTPPVLDSDGSFFLYSKLTVDKSRWQQGNVFSCSVMHEALHNHYTQKSLCLSPGK
chain 2: QVHLVESGGGLVQAGGSLRLSCAASRRSFSEYAMGWFRQAPGKEREFVAAIGWSGVIEYADSVKGRFTISRDNAKDTVYLQMNSLKPEDTAVYYCAAGLGIRVVSQTPAYWGQGTQVTVSSGGGGSEPKSSDKTHTCPPCPAPELLGGPCVFLFPPKPKDTLMISRTPEVTCVVVDVSHEDPEVKFNWYVDGVEVHNAKTKPREEQYNSTYRVVSVLTVLHQDWLNGKEYKCKVSNKALPAPIEKTISKAKGQPREPQVYTLPPSRDELTKNQVSLTCLVKGFYPSDIAVEWESNGQPENNYKTTPPVLDSDGSFFLTSKLTVDKSRWQQGNVFSCSVMHEALHNHYTQKSLCLSPGK
modifications: MC-vc-PAB-MMAE on Cys 239 and Cys 442 (EU numbering)
notes: as for B2
B5: D10-E10-hFc-vcPAB-MMAE [G4S]1 (Fc fusion, DAR 4)
chain 1: B4 chain 1
chain 2: QVQLVESGGGLVQAGGSLRLSCAVSGRALSDYNIGWFRQAPGKEREFVARKTWDGSSTRYDDSVKGRFTVSIEDAKNTAYLQMSSLKTEDTAVYYCAAGRYSRARGWEYDYWGQGTQVTVSSGGGGSEPKSSDKTHTCPPCPAPELLGGPCVFLFPPKPKDTLMISRTPEVTCVVVDVSHEDPEVKFNWYVDGVEVHNAKTKPREEQYNSTYRVVSVLTVLHQDWLNGKEYKCKVSNKALPAPIEKTISKAKGQPREPQVYTLPPSRDELTKNQVSLTCLVKGFYPSDIAVEWESNGQPENNYKTTPPVLDSDGSFFLTSKLTVDKSRWQQGNVFSCSVMHEALHNHYTQKSLCLSPGK
modifications: MC-vc-PAB-MMAE on Cys 239 and Cys 442 (EU numbering)
notes: as for B2
B6: D10-F05-hFc-vcPAB-MMAE [G4S]1 (Fc fusion, DAR 4)
chain 1: B4 chain 1
chain 2: B5 chain 2 with V24A, L29F, S30G, K51R, E73D, D74N, S84N, A104V
modifications: MC-vc-PAB-MMAE on Cys 239 and Cys 442 (EU numbering)
notes: Biparatopic drug conjugate, DAR 4; also called #679

Biological target: T1, human ALPI on CHO cells (human, UniProt P09923 20-503)
T1 construct: whole, on cells; also called CHO-ALPI
T1 sequence (looked up): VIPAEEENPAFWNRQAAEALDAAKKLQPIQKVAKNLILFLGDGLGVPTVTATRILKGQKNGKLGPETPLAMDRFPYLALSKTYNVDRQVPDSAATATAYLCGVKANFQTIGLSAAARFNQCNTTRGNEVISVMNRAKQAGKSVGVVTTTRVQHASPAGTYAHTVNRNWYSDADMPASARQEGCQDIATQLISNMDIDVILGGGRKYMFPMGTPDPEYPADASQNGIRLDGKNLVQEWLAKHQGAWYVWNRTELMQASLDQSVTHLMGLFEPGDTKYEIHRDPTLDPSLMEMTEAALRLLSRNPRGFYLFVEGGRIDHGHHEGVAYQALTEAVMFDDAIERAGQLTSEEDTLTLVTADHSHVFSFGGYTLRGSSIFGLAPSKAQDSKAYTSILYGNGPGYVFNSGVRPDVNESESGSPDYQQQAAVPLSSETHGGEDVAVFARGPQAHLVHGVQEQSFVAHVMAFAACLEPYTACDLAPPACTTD
Test: flow cytometry, CHO cells stably expressing human ALPI; PDC detected with FITC anti-human Ab
Protocol: (§1) Biparatopic VHH-hFc drug conjugates were assessed for human ALPP, ALPPL2, ALPI and ALPL cell-surface binding by flow cytometry. Binders were screened on CHO cells stably expressing human ALPP, ALPPL2, ALPI or ALPL.
(§2) Cell surface binding of test agents to hALPP isoforms was characterized in four CHO-ALPP isoform transfectant cell lines (CHO-ALPP, CHO-ALPPL2, CHO-ALPI and CHO-ALPL) and the resulting KDapp values determined. Adherent cells were detached from tissue culture flasks by incubating with 0.1% EDTA/PBS solution at 37° C. for […] or until cells detached easily. Cells were re-suspended in ice-cold PBS/2% FCS in 15 ml tubes and centrifuged at 1700 rpm for 5 mins at 4° C. Supernatant was removed and the cell pellet re-suspended in PBS/2% FCS. […] Cells were incubated with 100 μl of test agents at a range of concentrations, plus controls for 1 hr on ice. The sample plate was centrifuged at 1700 rpm for 5 mins at 4° C. The supernatant was removed, and a wash performed by re-suspending the cell pellets in 0.25 mL of ice-cold PBS/2% FCS using a multichannel pipette. Samples were again centrifuged at 1700 rpm for 5 min at 4° C. Supernatant was removed and two further washes performed as described. After the final wash and centrifugation step, excess liquid was removed by blotting the plate on tissue paper. Binding of VHH-hFc agents was determined by adding 100 μl of Fitc-anti-human Ab (ThermoFisher) and incubating for 30 mins on ice in the dark. Wash steps were performed as described previously. All cell pellets were finally re-suspended in 0.28 ml of ice-cold PBS/2% FCS and left on ice in the dark prior to analysis on a Merck-Millipore Guava EasyCyte HT or Thermo Fisher Attune N×T flow cytometer.

Binding result, no binding (tested: 350 nM):
B1
B2
B3
B4
B5
B6

Biological target: T2, human ALPL on CHO cells (human, UniProt P05186 18-501)
T2 construct: whole, on cells; also called CHO-ALPL
T2 sequence (looked up): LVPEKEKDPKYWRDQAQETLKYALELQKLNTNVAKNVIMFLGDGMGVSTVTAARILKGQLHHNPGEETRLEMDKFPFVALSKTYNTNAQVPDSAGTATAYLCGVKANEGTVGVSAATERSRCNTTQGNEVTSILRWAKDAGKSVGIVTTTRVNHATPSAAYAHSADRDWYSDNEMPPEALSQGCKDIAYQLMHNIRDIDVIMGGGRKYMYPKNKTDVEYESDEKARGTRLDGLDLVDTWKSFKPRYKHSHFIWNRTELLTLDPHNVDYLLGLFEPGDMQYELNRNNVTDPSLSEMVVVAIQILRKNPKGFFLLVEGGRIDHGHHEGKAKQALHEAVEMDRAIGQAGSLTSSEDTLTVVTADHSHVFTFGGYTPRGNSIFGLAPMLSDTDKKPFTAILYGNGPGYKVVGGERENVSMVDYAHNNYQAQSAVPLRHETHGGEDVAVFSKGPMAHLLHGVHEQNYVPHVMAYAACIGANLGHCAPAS
Test: flow cytometry, CHO cells stably expressing human ALPL; PDC detected with FITC anti-human Ab
Protocol: as §1, §2

Binding result, no binding (tested: 350 nM):
B1
B2
B3
B4
B5
B6
